The values below come from paper PMC8322138, “BRCA2 binding through a cryptic repeated motif to HSF2BP oligomers does not impact meiotic recombination” (Nature Communications, 2021).

Changes are numbered by the printed parent chain. Names may count otherwise.

Data set [1] is described as follows: NMR chemical shift secondary structure analysis of F0. In kind it is physicochemical, human. The following applies: 50 mM Hepes pH 7.0, 50 mM NaCl, 283 K, 700 MHz. As for the experimental part:
(§1) For NMR analysis, ^15N-labeled or ^15N- and ^13C-labeled BRCA2 fragments were produced in E. coli BL21 DE3 Star cells grown in M9 medium containing either 0.5 g/l ^15NH4Cl or 0.5 g/l ^15NH4Cl and 2 g/l ^13C-glucose, respectively. […]
(§2) The ^15N/^13C-labeled F0 fragment was analyzed by 3D heteronuclear NMR. in order to assign its Hn, N, Cα, Cβ, and Co chemical shifts, and identify its binding site to HSF2BP. Therefore, 3D NMR HNCA, CBCACONH, HNCACB, HNCANNH, HNCO, and HNCACO experiments were performed on a 700 MHz Bruker AVANCE NEO spectrometer equipped with a triple resonance cryogenic TCI probe at 283 K. The data were processed using Topspin 4.0 (Bruker) and analyzed using CCPNMR 2.4[49]. […] For binding studies, 2D NMR ^1H-^15N HSQC experiments were recorded on a 3-mm-diameter sample tube containing the ^15N-labeled F0 at 100 μM in the absence and presence of the ARM domain at 100 μM, on a 950 MHz Bruker Avance III spectrometer equipped with a triple resonance cryogenic TCI probe at 283 K.

Data set [2] addresses T1, ARM domain of HSF2BP (Homo sapiens, UniProt O75031).
T1 construct: The armadillo domain of HSF2BP, from aa 122 to aa 334; 6xHis-TEV (N, cleaved yes); made in house; host or cells: E. coli BL21 DE3 Rosetta2
T1 sequence (O75031 122-334): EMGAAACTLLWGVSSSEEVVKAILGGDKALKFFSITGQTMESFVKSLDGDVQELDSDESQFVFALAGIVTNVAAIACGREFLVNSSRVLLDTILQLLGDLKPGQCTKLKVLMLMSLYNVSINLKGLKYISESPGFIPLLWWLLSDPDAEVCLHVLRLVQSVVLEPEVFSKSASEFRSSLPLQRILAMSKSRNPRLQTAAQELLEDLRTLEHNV
Put plainly: ITC of BRCA2 fragments with HSF2BP armadillo domain. The class given is binding. The following applies: for ΔG / −TΔS / ΔH (±error): 293 K. An excerpt: (§3) Human full-length HSF2BP WT and R200T were expressed using a pETM11 (6xHis-TEV) expression vector in E. coli BL21 DE3 Rosetta2 cells, and purified as previously reported (Brandsma et al., Cell Rep 2019). The armadillo domain of HSF2BP, from aa 122 to aa 334, which we will further name ARM, was similarly expressed using a pETM11 (6xHis-TEV) expression vector in BL21 DE3 Rosetta2 cells and purified as full-length HSF2BP.
(§4) Human BRCA2 fragment F0 was expressed using a pET-22b expression vector as a fusion protein comprising BRCA2 from aa 2213 to aa 2342 (including mutation C2332T to avoid oxidation problems), a TEV site, a GB1 and 6xHis tag, in E. coli BL21 DE3 Star cells. The BRCA2 gene was optimized for expression in bacteria and synthesized by Genscript. In addition, smaller BRCA2 fragments were produced using the same strategy: FNMR and F15X corresponding to aa 2252 to aa 2342 and aa 2291 to aa 2343, respectively. The smallest fragment F15X∆12, from aa 2312 to aa 2342, was synthesized by Genecust.
(§5) ITC experiments were performed using a high-precision VP-ITC instrument (GE Healthcare) at 293 K. To characterize the interactions between HSF2BP and BRCA2 fragments (WT, variants), the proteins were dialyzed against 25 mM Tris pH 7.5, 250 mM NaCl, 5 mM β-mercaptoethanol. The HSF2BP (or ARM domain) was in the sample cell at 10–20 μM and was titrated by BRCA2 fragments at 40–100 μM, using 10 μL injections with 210 s intervals between each injection. The first 2 μL injection was ignored in the final data analysis. The integration of the peaks corresponding to each injection. the correction for the baseline and the fit were performed using the Origin 7.0 software provided by the manufacturer, to obtain the stoichiometry (N), dissociation constant (Kd), and enthalpy of complex formation (ΔH) for each interaction. Two replicates were performed for each experiment.

In another data set the target is T2, HSF2BP FL (Homo sapiens, UniProt O75031).
T2 construct: Human full-length HSF2BP WT and R200T were expressed; 6xHis-TEV (N, cleaved yes); made in house; host or cells: E. coli BL21 DE3 Rosetta2
T2 sequence (O75031 1-334): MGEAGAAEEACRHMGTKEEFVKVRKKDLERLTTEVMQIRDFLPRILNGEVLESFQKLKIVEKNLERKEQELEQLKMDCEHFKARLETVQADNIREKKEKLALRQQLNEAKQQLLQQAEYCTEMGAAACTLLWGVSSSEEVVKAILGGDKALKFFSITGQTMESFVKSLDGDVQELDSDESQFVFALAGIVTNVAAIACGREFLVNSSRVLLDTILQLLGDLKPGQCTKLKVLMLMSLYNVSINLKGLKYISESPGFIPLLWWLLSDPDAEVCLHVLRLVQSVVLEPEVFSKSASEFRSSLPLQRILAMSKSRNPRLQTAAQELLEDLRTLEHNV
The experiment in a line: ITC of BRCA2 fragments with full-length HSF2BP. The class given is binding.
Excerpt: as §3, §4, §5

The target in data set [3] is T1, ARM domain of HSF2BP. The experiment in a line: 2D NMR 1H-15N HSQC of 15N-labeled F0 with ARM. The following applies: 15N-F0 100 μM, ARM 1:1, 950 MHz, 283 K, pH 7.0; region S2252-Q2342. The class given is binding. As for the experimental part:
as §1, §2

The test system of a further data set is HSF2BP mutant R200T. The experiment in a line: ITC of BRCA2 F0 with HSF2BP R200T. The following applies: ITC control. The class given is binding, human. The method, then: as §3, §5
The subject of data set [4] is H3 fragment (the ARM domain) of HSF2BP. The experiment in a line: Co-immunoprecipitation of Flag-BRCA2 fragments with GFP-HSF2BP fragment H3. In kind it is cell-based, human. The following applies: Fig. 1c; HEK293T; comparison with F15 and F9; reviewer's reading of the figure. An excerpt:
(§6) Expression constructs for producing point mutation and truncation variants of HS2BP and BRCA2 in human cells were engineered as described before[16] in the PiggyBac vectors by Gibson assembly. For transient expression into HEK293T cells plasmid DNA was transfected using calcium precipitation method or PEI transfection. For stable integration into HeLa cells, PiggyBac expression vectors were co-lipofected together with PiggyBac transposase plasmid (hyPBase[45]) with Lipofectamine 3000 (Thermo Fisher).
Cells were washed twice in ice-cold PBS and lysed in situ in NETT buffer (100 mM NaCl, 50 mM Tris pH 7.5, 5 mM EDTA pH 8.0, 0.5% Triton-X100) supplemented immediately before use with protease inhibitor cocktail (Roche) and 0.4 mg/ml Pefabloc (Roche) (NETT++); 450 µl NETT++ buffer was used per 145 mm dish ES cells, 1 ml for HeLa and HEK293T. After 5–10 min, cells were scraped off and collected in 1.5 ml microcentrifuge tubes; lysis was continued for additional 20–30 min on ice, then mixtures were centrifuged (15 min, 4 °C, 14,000 × g) and the supernatant (input) was added to washed anti-GFP beads (Chromotek). […] For quantitative immunoblotting fluorescently labeled secondary antibodies were used: anti-mouse CF680 (Sigma #SAB460199), anti-rabbit CF770 (Sigma #SAB460215); membranes were scanned using Odyssey CLx imaging system (LI-COR).

The test system of the next data set is GFP-HSF2BP. The experiment in a line: Co-immunoprecipitation of Flag-BRCA2 variants/fragments with GFP-HSF2BP WT. The class given is cell-based, human. The note with it: transient HEK293T, anti-GFP beads, immunoblot.
Excerpt: as §6
Cells were washed twice in ice-cold PBS and lysed in situ in NETT buffer (100 mM NaCl, 50 mM Tris pH 7.5, 5 mM EDTA pH 8.0, 0.5% Triton-X100) supplemented immediately before use with protease inhibitor cocktail (Roche) and 0.4 mg/ml Pefabloc (Roche) (NETT++); 450 µl NETT++ buffer was used per 145 mm dish ES cells, 1 ml for HeLa and HEK293T. After 5–10 min, cells were scraped off and collected in 1.5 ml microcentrifuge tubes; lysis was continued for additional 20–30 min on ice, then mixtures were centrifuged (15 min, 4 °C, 14,000 × g) and the supernatant (input) was added to washed anti-GFP beads (Chromotek). Beads and lysates were incubated 2–4 h at 4 °C while rotating, washed three times in NETT++ buffer and bound proteins were eluted by boiling in 2x Sample buffer. Immunoblotting was performed following standard procedures with the following antibodies: anti-GFP mAb (Roche, #11814460001), anti-GFP pAb (Abcam #ab290 and Invitrogen #A11122), anti-RAD51[46], anti-BRCA2 mAb Ab1 OP-95 (Millipore #OP95), anti-BRCA2 (Abcam #27976), anti-Flag (M2 antibody, Sigma, F3165 and F1804). For quantitative immunoblotting fluorescently labeled secondary antibodies were used: anti-mouse CF680 (Sigma #SAB460199), anti-rabbit CF770 (Sigma #SAB460215); membranes were scanned using Odyssey CLx imaging system (LI-COR).
On the technique in general: In western blotting, separated proteins are transferred to a membrane and probed.

The nature of data set [5]: Stability / expression of recombinant GFP-HSF2BP variants. The arrangement: species or system human. The note with it: peer review file; immunoblot, FACS.
Data set [6] concerns mitomycin C-induced repair foci. The following applies: cited from earlier work. An excerpt: Consistent with our in vitro study, we observed in mouse ES cells that deletion of exon 12, coding for motif 1, causes a severe decrease in the BRCA2-HSF2BP interaction, and deletion of exons 12 to 14, coding for motifs 1 and 2, completely abolishes this interaction (Fig. 5d, e). […] We further previously ...

B1: F0: Human BRCA2 fragment aa 2213 to aa 2342 including mutation C2332T, recombinant (protein)
chain: STYSKDSENYFETEAVEIAKAFMEDDELTDSKLPSHATHSLFTCPENEEMVLSNSRIGKRRGEPLILVGEPSIKRNLLNEFDRIIENQEKSLKASKSTPDGTIKDRRLFMHHVSLEPITTVPFRTTKERQ
modifications: left off: GB1, C-terminal, cleaved | His6, C-terminal, cleaved
notes: Human BRCA2 fragment aa 2213 to aa 2342 including mutation C2332T, recombinant
On to B1, for which the “transient α-helix population, region N2291-S2303” value in data set [1] is listed as “about 25%”. The ΔG with ARM domain of HSF2BP [2] (pH 7.5, expt 1) is -10 kcal/mol; in the data set with ARM domain of HSF2BP [2] (pH 7.5, expt 2), -10.1 kcal/mol; in the data set with HSF2BP FL (293 K, pH 7.5, expt 1), -11.8 kcal/mol. The “−TΔS” value was -1.7 kcal/mol with ARM domain of HSF2BP [2] (pH 7.5, expt 1); 1.8 kcal/mol with ARM domain of HSF2BP [2] (pH 7.5, expt 2); -0.8 kcal/mol with HSF2BP FL (293 K, pH 7.5, expt 1); -1.0 kcal/mol with HSF2BP FL (293 K, pH 7.5, expt 2). In addition, the “ΔH (±error)” value with ARM domain of HSF2BP [2] (pH 7.5, expt 1, error in brackets) is listed as −8.3 (0.2) kcal/mol; with ARM domain of HSF2BP [2] (pH 7.5, expt 2, error in brackets), −11.9 (0.2) kcal/mol; in the data set with HSF2BP FL (293 K, pH 7.5, expt 1, error in brackets) it was −11.0 (0.1) kcal/mol; with HSF2BP FL (293 K, pH 7.5, expt 2, error in brackets), −10.9 (0.1) kcal/mol. Besides, the stoichiometry with ARM domain of HSF2BP [2] (one BRCA2 peptide binds to two ARM) and in the data set with HSF2BP FL (BRCA2 peptide per HSF2BP) was 0.5 each time. In addition, the “affinity ratio HSF2BP vs ARM” value with HSF2BP FL (HSF2BP binds tighter to F0 than does ARM) is “about 25 -fold”. The “HSQC peak intensity ratio (with ARM / free)” value in the data set with ARM domain of HSF2BP [3] is listed as “lower than 0.4”. The binding entry in the data set on HSF2BP mutant R200T is given as “does not bind”.

B2: F16: Flag-tagged BRCA2 fragment 2270-2333 (protein, UniProt P51587 2270-2333, looked up, fragment)
chain: GKRRGEPLILVGEPSIKRNLLNEFDRIIENQEKSLKASKSTPDGTIKDRRLFMHHVSLEPITCV
modifications: Flag tag
Regarding B2, the “interaction with H3 (co-precipitation)” value in data set [4] is given as “same level of interaction”. Also, in the data set on GFP-HSF2BP, the “interaction with HSF2BP (co-precipitation)” value is “reduced efficiency”.

B3: L85R: GFP-HSF2BP point mutant (protein, UniProt O75031 1-334, looked up, variant L85R)
Heat shock factor 2-binding …: T2 sequence (O75031 1-334) with L85R
modifications: GFP fusion
notes: GFP-HSF2BP point mutant
For the molecule B3, the “stability of recombinant GFP-HSF2BP variant” value in data set [5] was “unstable”.

B4: R200T: HSF2BP mutant R200T (protein, UniProt O75031 1-334, looked up, variant R200T)
Heat shock factor 2-binding …: T2 sequence (O75031 1-334) with R200T
B4: in data set [6], the “localization of GFP-tagged HSF2BP to mitomycin C-induced repair foci” value is on record as “abolishes localization”.
